# Source: patent US20240026007A1 (Boehringer Ingelheim, published 2024)
# B1: ABX0020 (antibody, human IgG1, kappa)
# heavy: not shown
# light: DIQMTQSPSSLSASVGDRVTITCRASQSISSYLNWYQQKPGKAPKLLIYAASSLQSGVPSRFSGSGSGTDFTLTISSLQPEDFATYYCQQSATYWDMFGQGTKVEIKRTVAAPSVFIFPPSDEQLKSGTASVVCLLNNFYPREAKVQWKVDNALQSGNSQESVTEQDSKDSTYSLSSTLTLSKADYEKHKVYACEVTHQGLSSPVTKSFNRGEC
# notes: also called R2-A12 hIgG1
# B2: ABX0040 (bispecific antibody)
# chain 1: not shown
# chain 2: B1 light
# chain 3: EVQLVESGGGLVQPKGSLKLSCAASGFTFNTYAMNWVRQAPGKGLEWVARIRSKYNNYATYYADSVKDRFTISRDDSQSILYLQMNNLKTEDTAMYYCVRHGNFGNSYVSWFAYWGQGTLVTVSS
# chain 4: QAVVTQESALTTSPGETVTLTCRSSTGAVTTSNYANWVQEKPDHLFTGLIGGTNKRAPGVPARFSGSLIGDKAALTITGAQTEDEAIYFCALWYSNLWVFGGGTKLTVL
# How the values were obtained:
# [1] = molecular target: V-0021 (…)/HLA-E 01:03 monomer complex (human); assay: ELISA; monomer complex 0.25 µg/ml on neutravidin plate, antibody 1 µg/ml
# [2] = molecular target: T1, HLA-G signal peptide/HLA-E*0103 complex (ABI-V-0025; …) (human); assay: label-free (ResoSens, Resonant Sensors); ABX0020 captured by anti-IgG-Fc, V-0025 HLA-E 01:03 monomer in solution (monovalent)
# T1 construct: also called 0025-E 01:03 monomer complex; V-0025 HLA-E 01:03 monomer complex
# Protocol: (§1) The method for determining the affinity was as follows. Thermofisher Capture Select™ Biotin anti-IgG-Fc (Hu) (diluted PBS buffer) was immobilized on neutravidin coated Bionetic label-free microarray plate at 5 ug/ml until binding reached equilibrium. Plate subsequently was washed 3× with 0.1% BSA, 0.1% Tween20, PBS dilution/wash buffer. […] Plate was subsequently washed in dilution/wash buffer 3×. V-0025 HLA-E 01:03 monomer complex (serial dilutions starting at 5 ug/ml in dilution/wash buffer) was added to wells and allowed to incubate for 20 minutes to determine the binding association and then immediately followed by dissociation (dilution/wash buffer) for approximately 25 minutes. Binding affinity calculated using Tracedrawer kinetic analysis software.
# [3] = molecular target: T2, V-0018 (…)/HLA-A2 02:01 monomer complex (human); assay: ELISA; monomer complex on neutravidin plate
# T2 construct: also called ABI-V-0018; negative control (V-0018)
# [4] = molecular target: V-0038 (…)/HLA-E 01:03 monomer complex (human); assay: ELISA; monomer complex on neutravidin plate
# [5] = molecular target: P-0550 (…)/HLA-E monomer complex (human); assay: ELISA; monomer complex on neutravidin plate
# [6] = molecular target: 0003-A2 (…)/HLA-A2 02:01 monomer complex (human); assay: ELISA; monomer complex on neutravidin plate
# [7] = molecular target: T3, V-0025 (…)/HLA-A2 02:01 monomer complex (human); assay: ELISA; monomer complex on neutravidin plate
# T3 construct: also called V-0025 on HLA-A2*02:01
# [8] = molecular target: V-0013 (…)/HLA-E 01:03 monomer complex (human); assay: ELISA; monomer complex on neutravidin plate
# [9] = molecular target: LL-001 (…)/HLA-E 01:03 monomer complex (human); assay: ELISA; monomer complex on neutravidin plate
# [10] = molecular target: 0002-A2 (…)/HLA-A2 02:01 monomer complex (human); assay: ELISA; monomer complex on neutravidin plate
# [11] = molecular target: LL-002 (…)/HLA-E 01:03 monomer complex (human); assay: ELISA; monomer complex on neutravidin plate
# [12] = molecular target: T1, HLA-G signal peptide/HLA-E*0103 complex …; assay: label-free (ResoSens), against the Octet value of R4
# Protocol: as §1
# [13] = molecular target: T1, HLA-G signal peptide/HLA-E*0103 complex …; assay: label-free (ResoSens); V-0025 HLA-E 01:03 monomer on neutravidin plate, ABX0040 in solution
Binder,binding result [1],Kd [2],binding result [3],binding result [4],binding result [5],binding result [6],binding result [7],binding result [8],binding result [9],binding result [10],binding result [11],fold improvement of KD over the R4 clone [12],Kd [13]
B1,binds,1.87 nM,"no binding (tested: antibody 1 µg/ml, antigen 0.25 µg/ml)","no binding (tested: antibody 1 µg/ml, antigen 0.25 µg/ml)","no binding (tested: antibody 1 µg/ml, antigen 0.25 µg/ml)","no binding (tested: antibody 1 µg/ml, antigen 0.25 µg/ml)","no binding (tested: antibody 1 µg/ml, antigen 0.25 µg/ml)","no binding (tested: antibody 1 µg/ml, antigen 0.25 µg/ml)","no binding (tested: antibody 1 µg/ml, antigen 0.25 µg/ml)","no binding (tested: antibody 1 µg/ml, antigen 0.25 µg/ml)","no binding (tested: antibody 1 µg/ml, antigen 0.25 µg/ml)",> 200 fold,–
B2,–,–,–,–,–,–,–,–,–,–,–,–,1.57 nM
